Tests used:
[1] = target: M2 isoform of human pyruvate kinase, wild type (human) (UniProt P14618); test: SEC; analytical gel filtration, Superdex 200 PC 3.2/30 in PBS-CM, room temperature; 0.1 mg/ml incubated 12 h (equilibrium) without or with 1 mM DTT or 20 μM H2O2; tetramer to monomers, peak areas on a bimodal distribution
[2] = target: M2 isoform of human pyruvate kinase, wild type (human) (UniProt P14618); test: SEC; analytical gel filtration, Superdex 200 PC 3.2/30 in PBS-CM, room temperature; stock of ∼20 mg/ml diluted to 0.1 mg/ml and incubated 1 h without or with 1 mM DTT or 20 μM H2O2; tetramer to monomers, peak areas on a bimodal distribution
[3] = target: Pyruvate kinase M2 (Homo sapiens) (UniProt P14618); test: gel filtration; settings: cited from earlier work

M2 isoform of human pyruvate kinase, wild type, P14618 1-531 (enzyme; other documents disagree on this pair), sequence (P14618 whole entry, canonical isoform): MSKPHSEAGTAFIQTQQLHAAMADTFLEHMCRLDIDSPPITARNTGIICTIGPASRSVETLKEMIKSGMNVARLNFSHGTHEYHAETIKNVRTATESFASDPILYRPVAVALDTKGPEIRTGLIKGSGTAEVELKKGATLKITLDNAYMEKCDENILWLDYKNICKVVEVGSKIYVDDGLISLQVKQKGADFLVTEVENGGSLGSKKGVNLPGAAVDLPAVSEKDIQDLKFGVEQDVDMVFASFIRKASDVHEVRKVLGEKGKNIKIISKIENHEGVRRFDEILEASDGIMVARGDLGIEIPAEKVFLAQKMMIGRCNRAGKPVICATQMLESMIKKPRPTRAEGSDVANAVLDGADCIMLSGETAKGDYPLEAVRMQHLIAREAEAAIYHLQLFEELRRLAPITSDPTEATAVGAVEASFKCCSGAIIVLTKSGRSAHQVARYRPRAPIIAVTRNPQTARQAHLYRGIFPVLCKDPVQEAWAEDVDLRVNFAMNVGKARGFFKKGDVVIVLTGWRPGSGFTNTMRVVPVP
Pyruvate kinase M2, sequence (P14618 2-531): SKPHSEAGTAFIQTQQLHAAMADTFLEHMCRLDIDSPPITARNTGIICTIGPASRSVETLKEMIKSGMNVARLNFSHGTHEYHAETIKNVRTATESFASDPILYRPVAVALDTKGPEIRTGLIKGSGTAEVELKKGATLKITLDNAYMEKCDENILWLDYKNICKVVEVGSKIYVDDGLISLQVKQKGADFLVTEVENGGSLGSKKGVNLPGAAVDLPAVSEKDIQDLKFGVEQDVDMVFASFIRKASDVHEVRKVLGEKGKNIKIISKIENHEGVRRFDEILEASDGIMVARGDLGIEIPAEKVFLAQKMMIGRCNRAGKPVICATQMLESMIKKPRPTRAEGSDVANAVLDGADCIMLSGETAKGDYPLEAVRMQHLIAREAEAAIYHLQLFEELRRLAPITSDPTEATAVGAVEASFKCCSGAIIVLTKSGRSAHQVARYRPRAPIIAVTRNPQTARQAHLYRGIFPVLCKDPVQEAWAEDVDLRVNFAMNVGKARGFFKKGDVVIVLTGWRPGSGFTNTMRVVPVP

| Substance | percent tetramer (20 μM H2O2, 12 h) [1] | percent tetramer (1 mM DTT, 12 h) [1] | percent tetramer (no DTT, no H2O2, 12 h) [1] | percent tetramer (20 μM H2O2, 1 h) [2] | percent tetramer (1 mM DTT, 1 h) [2] | percent tetramer (no DTT, no H2O2, 1 h) [2] | Kd [3] |
| --- | --- | --- | --- | --- | --- | --- | --- |
| M2 isoform of human pyruvate kinase, wild type, P14618 1-531 (enzyme; other documents disagree on this pair) | 42% | 71% | 55% | 63% | 64% | 62% |  |
| Pyruvate kinase M2 (from UniProt P14618) |  |  |  |  |  |  | 900 nM |

Reference: publication PMC6208296, “Redox regulation of pyruvate kinase M2 by cysteine oxidation and S-nitrosation” (Biochemical Journal, 2018)
